Entries after “also recorded” stand apart in the source; their conditions may differ.
Key:
reteplase = reteplase (Homo sapiens, UniProt P00750); assay: Fibrinolysis assay in human plasma derived clots, lysis by reteplase; format: biochemical; details: reteplase 20 nM, mutant 10 nM, FIG. 2B
Procedure: (§1) Fibrinolysis Assay in Human Plasma Derived Clots
(§2) Clots were formed by placing human plasma (200 μL) in 16-mm diameter tissue culture wells flowed by adding thrombin (0.4 U/mL final concentration). Fibrinolysis was measured as described in Higazi A A et al., Blood (1998), 92(6):2075-83). Briefly, 10 μL tPA or uPA were placed over the plasma clots for 2 hours at 37° C., photographed and the diameter of the wholes were determined.

WT-tPA = assay: Fibrinolysis assay in human plasma derived clots, lysis by WT-tPA; format: biochemical
Procedure: as §1, §2

tPA = assay: Plasminogen activator activity, chromogenic assay without fibrin, activation by tPA; format: biochemical, human; details: FIG. 2D
Procedure: (§3) Plasminogen Activator Activity
(§4) Plasminogen activator activity was determined by adding tPA (50 nM) or uPA (20 nM), to a reaction mixture containing Glu-plasminogen and the plasmin chromogenic substrate Spectrazyme PL (100 μM) in phosphate-buffered saline (PBS) at 37° C., and the light absorbance at 405 nm was measured continuously over time. The initial velocities of plasmin generation at the different conditions were calculated from the change in the A405 nm over time. The initial velocity of the reaction at each plasminogen concentration was obtained by calculating the change in the rate of A405 over different time intervals and the results were expressed as the change in optical density (ΔOD) per minute, which represents the slope of the initial velocity of plasminogen activation (Higazi A et al., J Biol Chem. (1995), 270(29):17375-80).

WT mice subjected to CHI = assay: Closed head injury (CHI) model of TBI in WT mice; format: in vivo, mouse; details: for neuroprotection (neurological severity score, NSS): given 2 hrs after CHI
Procedure: Eight to twelve weeks old C57 mice obtained from Harlan, Israel. Mice were administered standard laboratory chow and water ad libitum, and kept in controlled temperature and light conditions. Animal experiments were carried out according to the guidelines of the Hebrew University-Institutional Committee for Care and Use of Laboratory Animals, and with the committee's approval.
Closed Head Injury (CHI) Model
Head trauma was induced by using a modified weight-drop device, as previously described (Chen Y. et al. (1996) J. Neurotrauma, 13:557-568). Briefly, after induction of ether anesthesia, a midline longitudinal incision was made, the skin was retracted and the skull was exposed. The left anterior frontal area was identified and a Teflon tipped cone (2-mm diameter) was placed 1 mm lateral to the midline, in the midcoronal plane. The head was held in place manually and a 75-g weight was dropped on the cone from a height of 18 cm, resulting in focal injury to the left hemisphere. After trauma, the mice received supporting oxygenation with 95% 02 for no longer than 2 min and were then returned to their cages. In sham controls only anesthesia and skin incision were carried out.

uPA [1] = target: T1, uPA (Homo sapiens, UniProt P00749); assay: Plasminogen activator activity, chromogenic assay without fibrin, activation by uPA; format: biochemical; details: FIG. 2D
T1 construct: Single-chain urokinase (uPA) was purified, characterized as previously reported; made in house
Procedure: as §3, §4

uPA [2] = target: T1, uPA; assay: Fibrinolysis assay in human plasma derived clots, lysis by uPA; format: biochemical; details: uPA 50 nM; mutant 50 nM; FIG. 2A, 2B
Procedure: as §1, §2

[3] = mutant 100 nM added together with TA

WT-tPA, sequence (P00750 36-562): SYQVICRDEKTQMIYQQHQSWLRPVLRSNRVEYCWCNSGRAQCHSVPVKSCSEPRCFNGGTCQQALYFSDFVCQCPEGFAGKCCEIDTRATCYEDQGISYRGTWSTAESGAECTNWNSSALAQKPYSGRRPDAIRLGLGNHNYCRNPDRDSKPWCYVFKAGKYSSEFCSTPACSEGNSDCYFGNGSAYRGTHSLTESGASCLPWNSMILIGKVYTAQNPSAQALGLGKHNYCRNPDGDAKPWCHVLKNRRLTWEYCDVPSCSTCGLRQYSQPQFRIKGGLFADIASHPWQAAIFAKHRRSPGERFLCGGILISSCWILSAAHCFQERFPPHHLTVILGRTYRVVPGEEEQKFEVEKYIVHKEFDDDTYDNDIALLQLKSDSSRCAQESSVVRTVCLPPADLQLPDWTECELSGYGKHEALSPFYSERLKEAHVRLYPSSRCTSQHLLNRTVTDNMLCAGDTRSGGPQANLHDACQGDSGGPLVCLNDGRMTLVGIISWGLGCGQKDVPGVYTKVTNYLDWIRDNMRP

B1: tPA-S^481A-DS: tPA double mutant, Ser481 to Ala and KHRR299-302 to AAAA (PAI-1 docking site); SEQ ID NO. 2 or 13 (protein, listed as Homo sapiens)
chain: GARSYQVICRDEKTQMIYQQHQSWLRPVLRSNRVEYCWCNSGRAQCHSVPVKSCSEPRCFNGGTCQQALYFSDFVCQCPEGFAGKCCEIDTRATCYEDQGISYRGTWSTAESGAECTNWNSSALAQKPYSGRRPDAIRLGLGNHNYCRNPDRDSKPWCYVFKAGKYSSEFCSTPACSEGNSDCYFGNGSAYRGTHSLTESGASCLPWNSMILIGKVYTAQNPSAQALGLGKHNYCRNPDGDAKPWCHVLKNRRLTWEYCDVPSCSTCGLRQYSQPQFRIKGGLFADIASHPWQAAIFAAAAASPGERFLCGGILISSCWILSAAHCFQERFPPHHLTVILGRTYRVVPGEEEQKFEVEKYIVHKEFDDDTYDNDIALLQLKSDSSRCAQESSVVRTVCLPPADLQLPDWTECELSGYGKHEALSPFYSERLKEAHVRLYPSSRCTSQHLLNRTVTDNMLCAGDTRSGGPQANLHDACQGDAGGPLVCLNDGRMTLVGIISWGLGCGQKDVPGVYTKVTNYLDWIRDNMRP
notes: tPA double mutant, Ser481 to Ala and KHRR299-302 to AAAA (PAI-1 docking site); 2 or 13
clot lysis induced by reteplase (reteplase): inhibit the clot lysis induced by reteplase | potency as inhibitor of fibrinolysis compared with TA (WT-tPA; TA tested at its maximal inhibitory concentration, FIG. 2B): more potent inhibitors of fibrinolysis than TA | lysis of human plasma derived clots by WT-tPA (WT-tPA; WT-tPA 20 nM, mutant 50 nM, FIG. 2A, 2B): Identical anti-fibrinolytic activity; also recorded: inhibited | plasminogen activation by tPA in the absence of fibrin, in the presence of TA (tPA; [3]): inhibited the plasminogen activation induced by tPA | plasminogen activation by tPA in the absence of fibrin (change in OD per minute) (tPA; plasminogen 500 nM, WT-tPA 50 nM, mutants 100 nM or TA 200 nM alone): Neither tPA-S^481A nor tPA-S^481A-DS inhibited | intracerebral hemorrhage increased by injected WT-tPA post CHI (WT mice subjected to CHI; WT mice given WT-tPA 5 mg/kg immediately after CHI plus equimolar mutant): could be inhibited | plasma levels of d-Dimers post CHI (WT mice subjected to CHI; WT mice, 1 mg/kg IV, measured 2 hours after CHI, FIG. 4A, 1 mg/kg): significantly attenuated the increase in d-Dimers; also recorded: had the same effect on d-Dimers and post TBI thrombocytopenia | platelet counts / thrombocytopenia post CHI (WT mice subjected to CHI; WT mice, 1 mg/kg IV, measured 2 hours after CHI, FIG. 4B, 1 mg/kg): prevented the development of thrombocytopenia; also recorded: had the same effect on d-Dimers and post TBI thrombocytopenia | CSF fibrinolytic activity post CHI (WT mice subjected to CHI; WT mice, IV after CHI, CSF obtained 2 hours after CHI, tested on plasma derived clots): inhibited CSF fibrinolytic activity | intracerebral hemorrhage (MRI, extravasation of Hgb) post CHI (WT mice subjected to CHI; WT mice, IV immediately after or 2 hrs after CHI, Hgb at 2 or 8 hrs, MRI at 24 hrs): significantly attenuated the expansion of intracerebral hemorrhage; also recorded: decreased ICH to the same extent as tPA-S^481A | inhibition of intracerebral hemorrhage compared with combination of TA and aprotinin (WT mice subjected to CHI; combination in optimal concentrations, FIG. 3B): comparable to the inhibition induced by a combination of TA and aprotinin | neuroprotection (neurological severity score, NSS) (WT mice subjected to CHI; FIG. 5): the difference in neuroprotection provided by the two tPA variants vanished | neuroprotection (neurological severity score, NSS) (WT mice subjected to CHI; FIG. 5, listed as tPA^Ser481Ala-DS): lower neurological severity scores (NSS) | neuroprotection (neurological severity score, NSS, 24 hours after CHI) (WT mice subjected to CHI; given IV immediately after CHI, 1 mg/kg, FIG. 5): provided less neuroprotection than tPA-S^481A | potency as inhibitor of intracerebral hemorrhage compared with TA or aprotinin (WT mice subjected to CHI; optimal concentrations of TA or aprotinin, FIG. 3B): more potent inhibitors of intracerebral hemorrhage than optimal concentrations of TA or aprotinin | plasminogen activation by uPA in the absence of fibrin, in the presence of TA (uPA [1]; [3]): inhibited the activation of plasminogen by uPA | plasminogen activation by uPA in the absence of fibrin (change in OD per minute) (uPA [1]; plasminogen 500 nM, uPA 20 nM, mutants 100 nM or TA 200 nM alone): Neither tPA-S^481A nor tPA-S^481A-DS inhibited | lysis of human plasma derived clots by uPA (uPA [2]): Identical anti-fibrinolytic activity; also recorded: inhibited
